EP0571387B1

Target: c-met protooncogene product (HGF receptor) on B5/589 human mammary epithelial cells (human) (UniProt P08581)
Assay: cell-based or functional assay

Chain of UniProt P08581 (P08581 25-1390): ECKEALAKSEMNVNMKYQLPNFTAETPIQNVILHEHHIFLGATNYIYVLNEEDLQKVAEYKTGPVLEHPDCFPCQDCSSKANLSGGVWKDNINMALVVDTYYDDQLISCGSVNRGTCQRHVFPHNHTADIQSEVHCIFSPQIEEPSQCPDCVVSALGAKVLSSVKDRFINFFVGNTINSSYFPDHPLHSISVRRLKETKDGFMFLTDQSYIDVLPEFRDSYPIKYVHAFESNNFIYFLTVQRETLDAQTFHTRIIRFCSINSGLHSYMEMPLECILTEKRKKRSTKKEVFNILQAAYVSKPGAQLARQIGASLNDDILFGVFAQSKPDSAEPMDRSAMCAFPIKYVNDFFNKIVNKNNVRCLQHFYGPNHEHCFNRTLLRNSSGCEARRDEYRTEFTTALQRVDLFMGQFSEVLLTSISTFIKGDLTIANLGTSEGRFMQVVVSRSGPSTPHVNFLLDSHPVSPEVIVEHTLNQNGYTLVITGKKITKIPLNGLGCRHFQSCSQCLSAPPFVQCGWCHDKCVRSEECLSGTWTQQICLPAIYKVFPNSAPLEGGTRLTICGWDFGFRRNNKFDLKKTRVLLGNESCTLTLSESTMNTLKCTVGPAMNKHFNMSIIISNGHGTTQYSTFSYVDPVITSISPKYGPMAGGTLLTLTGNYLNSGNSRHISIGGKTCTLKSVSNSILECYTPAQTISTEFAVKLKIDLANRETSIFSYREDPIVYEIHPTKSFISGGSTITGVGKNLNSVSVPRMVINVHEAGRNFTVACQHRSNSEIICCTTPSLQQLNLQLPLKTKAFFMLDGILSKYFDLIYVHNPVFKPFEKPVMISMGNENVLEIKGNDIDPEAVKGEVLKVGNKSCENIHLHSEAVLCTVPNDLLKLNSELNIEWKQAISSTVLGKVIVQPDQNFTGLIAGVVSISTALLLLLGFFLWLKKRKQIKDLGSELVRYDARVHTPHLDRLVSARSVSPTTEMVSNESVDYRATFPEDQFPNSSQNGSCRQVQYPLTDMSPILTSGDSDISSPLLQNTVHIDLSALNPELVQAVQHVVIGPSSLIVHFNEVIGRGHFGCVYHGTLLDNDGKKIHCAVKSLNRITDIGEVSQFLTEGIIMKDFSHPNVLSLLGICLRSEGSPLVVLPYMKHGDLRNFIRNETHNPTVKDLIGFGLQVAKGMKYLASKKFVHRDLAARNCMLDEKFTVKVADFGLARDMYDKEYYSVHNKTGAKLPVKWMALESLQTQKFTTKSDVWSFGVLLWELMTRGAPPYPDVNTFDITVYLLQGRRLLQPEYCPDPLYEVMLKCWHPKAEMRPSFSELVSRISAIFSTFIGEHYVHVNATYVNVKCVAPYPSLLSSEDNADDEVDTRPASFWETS

inhibition of HGF-induced [3H]-thymidine incorporation in B5/589 cells (fold molar excess over HGF): 10 to 20
Substance: HGF/NK2 (34 kd truncated HGF variant, naturally occurring, purified from conditioned medium of SK-LMS-1 cells) (ligand)
